Earlier results on one substance are cited in publication PMC8469563.

In the data set the target is C1q (Homo sapiens) (UniProt P02745).
Chain of UniProt P02745 (P02745 23-245, chain 1 of 3): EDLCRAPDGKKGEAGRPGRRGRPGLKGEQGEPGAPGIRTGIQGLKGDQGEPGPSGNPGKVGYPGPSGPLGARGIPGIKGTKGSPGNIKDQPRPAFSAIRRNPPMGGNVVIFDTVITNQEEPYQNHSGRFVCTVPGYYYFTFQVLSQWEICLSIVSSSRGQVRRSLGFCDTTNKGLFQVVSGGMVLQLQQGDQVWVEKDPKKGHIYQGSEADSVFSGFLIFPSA
Chain of UniProt P02745 (P02746 28-253, chain 2 of 3, further chain): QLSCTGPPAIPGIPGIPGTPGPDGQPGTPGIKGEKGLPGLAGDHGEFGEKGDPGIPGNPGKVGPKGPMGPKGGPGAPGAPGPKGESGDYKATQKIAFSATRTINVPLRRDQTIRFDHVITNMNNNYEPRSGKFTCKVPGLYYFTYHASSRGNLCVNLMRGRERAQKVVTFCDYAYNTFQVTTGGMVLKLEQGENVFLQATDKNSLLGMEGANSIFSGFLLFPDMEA
Chain of UniProt P02745 (P02747 29-245, chain 3 of 3, further chain): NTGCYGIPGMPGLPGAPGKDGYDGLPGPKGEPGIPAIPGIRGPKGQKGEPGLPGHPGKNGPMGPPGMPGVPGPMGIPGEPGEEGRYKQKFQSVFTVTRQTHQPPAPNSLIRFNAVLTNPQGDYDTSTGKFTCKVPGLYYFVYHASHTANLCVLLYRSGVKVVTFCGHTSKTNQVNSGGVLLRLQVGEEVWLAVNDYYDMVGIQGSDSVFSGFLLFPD

In the case of HMGB1 (from UniProt P09429), the Kd (usually the constant that tells how readily two partners part at equilibrium) was 200 nM.
